Assay [1] deals with T1, pig TF-His (Pig (Sus scrofa)).
T1 construct: also called pig TF ECD-His; pTF
T1 chain: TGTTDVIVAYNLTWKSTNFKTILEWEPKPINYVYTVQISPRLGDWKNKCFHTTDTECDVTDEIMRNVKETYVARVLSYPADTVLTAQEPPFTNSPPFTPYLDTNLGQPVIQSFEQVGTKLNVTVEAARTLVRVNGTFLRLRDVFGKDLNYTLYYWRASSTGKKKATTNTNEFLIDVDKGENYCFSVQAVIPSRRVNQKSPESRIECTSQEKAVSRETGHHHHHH
The assay is described as follows: Biacore SPR, antibody captured by anti-human IgG on CM5, pig TF-His titrated from 100 nM, 1:1 fit. (Surface plasmon resonance follows binding to a sensor surface in real time, without labels.)
Method: (§1) The ability of certain antibodies was tested for binding to pig TF. For pig TF Biacore-based measurements, a given anti-TF antibody was captured by an anti-human IgG antibody covalently coupled to a CM5 chip (GE Healthcare Bio-Sciences). Association between the anti-TF antibodies and a five-point three-fold titration of pig TF-His starting at 100 nM was measured for 180 to 240 sec. Subsequently, dissociation between the anti-TF antibody and TF-His was measured for 1800 sec. Kinetic data was analyzed and fitted globally using a 1:1 binding model.

A further assay addresses T2, pig TF ECD-His (pig (Sus scrofa)).
T2 construct: also called pig TF-His; pTF
T2 chain: T1 chain
The experiment in a line: SPR (Biacore), antibody captured by anti-human IgG.

For another assay, the target named is T3, rabbit TF ECD-His (rabbit (Oryctolagus cuniculus), UniProt P24055 33-250).
T3 construct: also called rabbit TF-His
T3 sequence (P24055 other isoform, or with tags, fused parts or gaps): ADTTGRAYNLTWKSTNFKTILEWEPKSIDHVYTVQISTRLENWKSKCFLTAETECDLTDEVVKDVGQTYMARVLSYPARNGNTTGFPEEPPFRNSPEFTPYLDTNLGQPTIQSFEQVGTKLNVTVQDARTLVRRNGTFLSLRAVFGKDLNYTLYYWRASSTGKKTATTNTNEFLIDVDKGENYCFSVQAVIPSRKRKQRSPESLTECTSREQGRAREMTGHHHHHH
The experiment in a line: SPR (Biacore), antibody captured by anti-human IgG.

The target of assay [2] is T4, human Tissue Factor on human TF-positive cells (human, UniProt P13726 33-295).
T4 construct: also called hTF; CD142
The experiment in a line: competition flow cytometry on MDA-MB-231 cells: antibody titration first, then 20 nM FVII-Fc-Alexa488 as the blocked ligand. A general note: In flow cytometry, cells or beads pass a laser one at a time.
Method: After another 1 hr incubation on ice, cells were washed, stained with a viability dye, and analyzed by flow cytometry. The Alexa488 fluorescence data from viable cells was summarized using median fluorescence intensity.

For assay [3], the target named is T5, full-length mouse TF with a C-terminal FLAG tag on Flp-In-CHO cells (mouse, UniProt P20352 29-294).
T5 construct: also called CHO-mTF; mouse TF-positive CHO cells
The assay is described as follows: flow cytometry, antibody titration on CHO cells expressing mouse TF.
Method: (§2) After 2 washes, dead cells were labeled with TO-PRO-3 Iodide (ThermoFisher Scientific) and samples were analyzed on a CytoFLEX flow cytometer (Beckman Coulter, Brea, CA, USA) or Novocyte flow cytometer (ACEA Biosciences, San Diego, CA, USA). The median fluorescence intensities (MFIs) at each dilution were plotted and cell EC₅₀'s were derived using a 4-parameter binding model in Prism (GraphPad, La Jolla, CA, USA).

The target in assay [4] is T4, human Tissue Factor on human …. The experiment in a line: flow cytometry, antibody titration on HCT-116 cells (endogenous human TF), 4-parameter fit of MFI.
Method: as §2
Assay [5] deals with T5, full-length mouse TF with a C-terminal …. The experiment in a line: flow cytometry on CHO cells expressing mouse TF, MFI at 250 nM antibody.
Method: as §2
Another assay concerns the target T6, human TF ECD-His6 (human, UniProt P13726 33-251).
T6 construct: Expi293-derived; Biacore used TF-His; also called TF-His; hTF
The experiment in a line: BLI (ForteBio Octet).

Assay [6] deals with T7, cynomolgus monkey TF ECD-His6 (cynomolgus monkey (Macaca fascicularis)).
T7 construct: Expi293-derived; also called TF-His; cTF
T7 chain: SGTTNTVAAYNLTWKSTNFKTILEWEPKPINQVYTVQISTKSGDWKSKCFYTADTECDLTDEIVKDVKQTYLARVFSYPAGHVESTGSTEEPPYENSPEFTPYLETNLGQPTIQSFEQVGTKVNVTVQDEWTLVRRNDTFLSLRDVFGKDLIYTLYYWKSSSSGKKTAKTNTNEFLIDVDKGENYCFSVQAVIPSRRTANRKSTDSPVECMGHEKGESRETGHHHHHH
The assay is described as follows: BLI (ForteBio Octet).
Method: (§3) Kinetic measurements for the anti-TF antibodies were conducted on an Octet QK384 (Pall ForteBio, Fremont, CA, USA) or a Biacore (GE Healthcare Bio-Sciences).
(§4) Briefly, ForteBio affinity measurements were performed by loading IgGs on-line onto AHC sensors. Sensors were equilibrated off-line in assay buffer for 30 min and then monitored on-line for 60 seconds for baseline establishment. Sensors with loaded IgGs were exposed to 100 nM antigen (human, cynomolgus, or mouse TF) for 3 min, afterwards they were transferred to assay buffer for 3 min for off-rate measurement. Alternatively, binding measurements were obtained by loading biotinylated TF monomer on SA sensors followed by exposure to 100 nM antibody Fab in solution. Kinetic data was analyzed and fitted using a 1:1 Langmuir binding model and the KD was calculated by dividing the koff by the kₒₙ.

For assay [7], the target named is T1, pig TF-His. The experiment in a line: Biacore SPR, antibody captured by anti-human IgG on CM5, pig TF-His titrated.
Method: as §1
The target in assay [8] is T8, rabbit TF ECD-His (TF-His) protein (rabbit (Oryctolagus cuniculus), UniProt P24055 33-250).
T8 construct: also called rabbit TF-His
T8 sequence (P24055 other isoform, or with tags, fused parts or gaps): as the sequence (P24055 other isoform, or with tags, fused parts or gaps) above
The assay is described as follows: Biacore; antibody captured by anti-human IgG on CM5 chip, titration of rabbit TF-His.
Method: The ability of certain antibodies was tested for binding to rabbit TF. For rabbit TF Biacore-based measurements, a given anti-TF antibody was captured by an anti-human IgG antibody covalently coupled to a CM5 chip (GE Healthcare Bio-Sciences). Association between the anti-TF antibodies and a five-point three-fold titration of rabbit TF-His starting at 100 nM was measured for 180 to 240 sec. Subsequently, dissociation between the anti-TF antibody and TF-His was measured for 1800 sec. Kinetic data was analyzed and fitted globally using a 1:1 binding model.

The target of assay [9] is T9, pig TF ECD-His (TF-His) protein (pig (Sus scrofa)).
T9 construct: also called pig TF-His; pTF
T9 chain: T1 chain
The assay is described as follows: Biacore; antibody captured by anti-human IgG on CM5 chip, titration of pig TF-His.
Method: as §1

Assay [10] concerns the target T10, rTF (rat TF) (rat, UniProt P42533 29-252). The assay is described as follows: live cell staining, flow cytometry, transfected HEK293.
Method: (§5) To establish binding of the anti-human TF antibodies to the various TF constructs, HEK293 cells were transfected with a DNA plasmid that co-expresses the TF construct and a green fluorescent protein marker. […] Upon acquisition of 80,000 live events on a flow cytometer, live cells marked with the fluorescent marker were analyzed for the degree of staining by the anti-TF antibody.
For a further assay, the target named is T11, h1-77_r (human/rat chimera).
T11 construct: Human TF ECD with residues 1-77 replaced by rat segment
Described as above.

Another assay addresses h78-107_r.v2 (human/rat chimera). The description is as above.
In another assay the target is T12, h1-107_r (human/rat chimera).
T12 chain: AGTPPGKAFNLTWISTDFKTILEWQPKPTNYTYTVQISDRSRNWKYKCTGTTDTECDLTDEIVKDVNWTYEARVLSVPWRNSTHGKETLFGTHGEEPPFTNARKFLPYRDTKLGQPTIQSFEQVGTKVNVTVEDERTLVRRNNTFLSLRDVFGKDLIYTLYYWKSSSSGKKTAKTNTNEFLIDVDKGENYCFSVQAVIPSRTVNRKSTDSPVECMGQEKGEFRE
The assay is described as above.

The target of assay [11] is T10, rTF (rat TF). Described as above. This is another data set of the same source.
Method: as §5
Another assay has as its target T13, hTF_N171H_T197K (human, UniProt P13726 33-251).
T13 chain: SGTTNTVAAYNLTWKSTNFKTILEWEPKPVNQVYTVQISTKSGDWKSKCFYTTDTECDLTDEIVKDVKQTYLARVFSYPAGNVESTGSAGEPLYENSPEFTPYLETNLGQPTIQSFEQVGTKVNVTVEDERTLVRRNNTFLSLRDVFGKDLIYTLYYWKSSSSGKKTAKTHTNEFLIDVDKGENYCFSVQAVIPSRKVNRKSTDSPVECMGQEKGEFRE
The assay is described as above.

The target in assay [12] is T14, hTF (human Tissue Factor construct) (human, UniProt P13726 33-251).
T14 construct: also called human TF
The assay is described as above.
Method: as §5

In a further assay the target is r141-194_h (rat/human chimera, UniProt P42533 29-252). The assay is described as above.

The results in this text go back to US20250361322A1 (ICONIC THERAPEUTICS, published 2025).

As a reminder, the Kd is a measure of binding affinity in units of concentration. As a reminder, the EC50 is the concentration needed to bring the measured effect to its halfway point.

Where a chain is given by its changes, count along the chain named. Where two headings read alike, the source gives them in different places.

Method for h1-107_r: as §5
Method for h1-77_r: as §5
Method for h78-107_r.v2: as §5
Method for hTF_N171H_T197K: as §5
Method for human TF ECD-His6: as §3, §4
Method for r141-194_h: as §5

B1: 43D8 (antibody, V domains shown)
VH: QVQLQQWGAGLLKPSETLSLTCAVYGGSLSGYYWSWIRQPPGKGLEWIGEIGASGSTRYNPSLKSRVTISVDTSKNQFSLKLSSVTAADTAVYYCARDTPYYYEGGYYYYMDVWGKGTTVTVSS
VL: EIVLTQSPGTLSLSPGERATLSCRASQSVSSSFLAWYQQKPGQAPRLLIYGAYSRATGIPDRFSGSGSGTDFTLTISRLEPEDFAVYYCQQAGVVPYTFGGGTKVEIK
notes: Human IgG (captured by anti-human IgG in the Biacore assay); also called antibody designated 43D8
On to B1, for which, in the assay with pig TF-His [1], the Kd came out at 12.9 nM.

B2: 25G9 (antibody, V domains shown)
VH: QVQLVQSGAEVKKPGASVKVSCKASGYTFRSYGISWVRQAPGQGLEWMGWVAPYSGNTNYAQKLQGRVTMTTDTSTSTAYMELRSLRSDDTAVYYCARDAGTYSPYGYGMDVWGQGTTVTVSS
VL: DIQMTQSPSTLSASVGDRVTITCQASQSIDSWLAWYQQKPGKAPKLLIYSASYLESGVPSRFSGSGSGTEFTLTISSLQPDDFATYYCQRFQSLPPFTFGGGTKVEIK
notes: Human IgG (captured by anti-human IgG in the Biacore assay); also called antibody designated 25G9
For the molecule B2, binding in the assay with pig TF-His [1] was put at a Kd of 3.31 nM.

B3: 29D (antibody, human IgG1, V domains shown)
VH: QVQLVESGGGVVQPGRSLRLSCAASGFTFHSRGMHWVRQAPGKGLEWVAVITYDGINKYYADSVEGRFTISRDNSKNTLYLQMNSLRAEDTAVYYCARDGVYYGVYDYWGQGTLVTVSS
VL: not shown
notes: Human IgG1; also called antibody designated 29D
B3: the binding result with pig TF ECD-His was “no binding (tested: titration starting at 100 nM)”; with rabbit TF ECD-His, “no binding (tested: titration starting at 100 nM)”; in assay [3], “no binding (tested: 250 nM)”. Also, the “IC50 (read off the curve)” value in [2] was ~2 nM. Moreover, a half-maximal effect in [4] (EC50) was put at 0.237 nM. For the same molecule, the “MFI at 250 nM” value in [5] was found to be 30000. Also, the Kd came out at 3.3 nM with human TF ECD-His6 and 12 nM in assay [6].

B4: 29D (antibody, V domains shown)
VH: B3 VH
VL: not shown
notes: Human IgG (captured by anti-human IgG in the Biacore assay); also called antibody designated 29D
As to B4, the binding result with pig TF-His [7] is “no binding”.

B5: anti-TF antibody 29D (antibody, human IgG1, V domains shown)
VH: B3 VH
VL: not shown
notes: Human IgG1
B5: the binding result in [8] and in assay [9] was “no binding” each time.

B6: 29E (antibody, V domains shown)
VH: B3 VH with H30R, R32Y
VL: not shown
notes: Human IgG (detected with anti-human IgG-Fc)
In the case of B6, the “percent antibody binding to TF construct relative to hTF” value worked out at 0% with rTF (rat TF) [10]; 0% with h1-77_r; 0% with h78-107_r.v2; 0% in the assay with h1-107_r; 0% with rTF (rat TF) [11]; 98% with hTF_N171H_T197K. The “percent antibody binding to TF construct relative to hTF” value is 100% in [12] and 0% in the assay with r141-194_h.

B7: 1G (antibody, human IgG1, V domains shown)
VH: EVQLLESGGGLVQPGGSLRLSCAASGFTFSSYAMAWVRQAPGKGLEWVSAISGSGGLTYYADSVKGRFTISRDNSKNTLYLQMNSLRAEDTAVYYCAKAPYGYYMDVWGKGTTVTVSS
VL: not shown
notes: Human IgG1; also called antibody designated 1G
Consider B7, for which the binding result with pig TF ECD-His is on record as “no binding (tested: titration starting at 100 nM)”; in the assay with rabbit TF ECD-His, “no binding (tested: titration starting at 100 nM)”; in [3], “no binding (tested: 250 nM)”. Also, in assay [2], the “IC50 (read off the curve)” value is ~1 nM. The same molecule showed an EC50 in assay [4] of 0.058 nM. For the same molecule, the “MFI at 250 nM” value in [5] was 4300. Moreover, the Kd in the assay with human TF ECD-His6 turned out to be 2.2 nM; in assay [6] it was 2.7 nM.

B8: 1F (antibody, V domains shown)
VH: B7 VH with S31D, A35G, A50T
VL: not shown
notes: as for B6
B8: the “percent antibody binding to TF construct relative to hTF” value with rTF (rat TF) [10] worked out at 0%; with h1-77_r it was 0%; with h78-107_r.v2, 0%; with h1-107_r, 0%; with rTF (rat TF) [11] it was 0%; with hTF_N171H_T197K, 83%. In addition, the results for the “percent antibody binding to TF construct relative to hTF” value (in assay [12]; with r141-194_h) were 100% and 0%, respectively.

B9: 1G (antibody, V domains shown)
VH: B7 VH
VL: not shown
notes: Human IgG (captured by anti-human IgG in the Biacore assay); also called antibody designated 1G
With B9, the binding result in the assay with pig TF-His [7] is reported as “no binding”.

B10: anti-TF antibody 1G (antibody, human IgG1, V domains shown)
VH: B7 VH
VL: not shown
notes: Human IgG1
As for B10, the binding result in [8] and in [9] was “no binding” each time.
